Measurements published in the Immune Epitope Database (IEDB).

The sequences below were run against HLA-A*02:01 (assay: IEDB peptide-MHC binding, purified MHC/direct/fluorescence; filed as Kd, often an IC50 or EC50 that approximates it; ≥ and ≤ were set here for values at or beyond the usual limits of such assays). Conditions: source organism: Francisella tularensis.

| Sequence | Kd [µM] |
| --- | --- |
| QLVGRVFAGL | 0.002 |

Same assay, conditions: source organism: Francisella tularensis subsp. tularensis SCHU S4

| Sequence | Kd [µM] |
| --- | --- |
| FLMPFMHYIV | ≤ 0.001 |
| FLSNVGHYV | ≤ 0.001 |
| FLSPNQVTNV | ≤ 0.001 |
| GIDGNVTFTV | ≤ 0.001 |
| GLNLVVSSSV | 0.02 |
| GTDGFPFKL | 0.024 |
| ILDPKTGLV | 0.015 |
| ILLPWFVDL | ≤ 0.001 |
| IMSSFEFQV | ≤ 0.001 |
| KIDSTSFSV | ≤ 0.001 |
| KLAKKVLSRV | 0.01 |
| KLGGYVSFV | ≤ 0.001 |
| KLLGQINLV | ≤ 0.001 |
| KLLPEGYWV | ≤ 0.001 |
| KLWGLVDFV | ≤ 0.001 |
| LMWDNVGLV | ≤ 0.001 |
| NLDTSPFFV | ≤ 0.001 |
| QLWPEEIGV | ≤ 0.001 |
| RLIGHISTL | ≤ 0.001 |
| VLPGVVVPIV | 0.015 |
| WLGETFHGL | ≤ 0.001 |
| WLGNHGFEV | ≤ 0.001 |

Each sequence was assayed against HLA-A*24:02 in the same assay as above. Conditions: source organism: Francisella tularensis subsp. tularensis SCHU S4.

| Sequence | Kd [µM] |
| --- | --- |
| AYVKNGYFEI | 0.076 |
| IFWQFHQLL | 0.01 |
| IYNNYDVLF | 0.023 |
| IYSDKGLLF | 0.004 |
| KYWNNHRQGI | 0.435 |
| LYQPLLDLL | 0.03 |
| LYSENGHFSW | 0.018 |
| NYNNLDDKF | 0.003 |
| NYQKWTAPL | 0.005 |
| NYVDSAQLAF | 0.009 |
| PYLKQGIEF | 0.008 |
| PYLKSFLSF | 0.02 |
| RYTDSEYFVI | 0.015 |
| SYDRWGIPI | 0.033 |
| SYSYLVYLI | 0.003 |
| SYTFTQTFF | 0.024 |
| TYPNSQQQTL | 0.18 |
| TYTSTLHPRL | 0.2 |
| WYTNLDTDKF | 0.255 |
| YYLDRGYLDF | 0.01 |

What follows are sequences tested against HLA-B*07:02 in the same assay as above. Conditions: source organism: Francisella tularensis.

| Sequence | Kd [µM] |
| --- | --- |
| APFANTYSAL | 0.022 |

Same assay, conditions: source organism: Francisella tularensis subsp. tularensis SCHU S4

| Sequence | Kd [µM] |
| --- | --- |
| APAFVVIADL | 0.114 |
| APYPNVVEM | 0.127 |
| FPATGQNIYM | 0.588 |
| FPICSTYKFL | 0.226 |
| FPICSVFKFL | 0.251 |
| FPINLNSSQL | 0.062 |
| FPKAFINIV | 0.151 |
| IPMTLTASPL | 0.004 |
| IPRTMLPLSL | 0.003 |
| LPRYNIATSV | 0.003 |
| MPVSRQISRM | 0.665 |
| SPMEHSKRI | 0.062 |
| SPMGPLAVSF | 0.018 |
| SPQANNLYL | 0.074 |
| TPNGNIPTL | 0.046 |
| VPRKPLLSYI | 0.038 |

The sequences below were run against HLA-B*07:02 (assay: IEDB peptide-MHC binding, purified MHC/competitive/fluorescence; filed as Kd, often an IC50 or EC50 that approximates it; ≥ and ≤ were set here for values at or beyond the usual limits of such assays). Conditions: source organism: Francisella tularensis subsp. tularensis SCHU S4.

| Sequence | Kd [µM] |
| --- | --- |
| APAWFQASA | ≥ 5 |
| FPNINFSPEV | ≥ 5 |
| FPQANLTGGI | 2.15 |
